Drawing on PMC7519299, this text covers stoichiometry N for one molecule.

This experiment deals with ATP synthase subunit c (bovine), P32876. The conditions noted are these: remark: other sources report otherwise.

B1: ATP synthase subunit c, P32876 62-136 (natural protein)
chain: DIDTAAKFIGAGAATVGVAGSGAGIGTVFGSLIIGYARNPSLKQQLFSYAILGFALSEAMGLFCLMVAFLILFAM
modifications: here or on the partner: trimethyllysine at position 43; trimethyllysine at position 43
In turn, B1 came in with a stoichiometry N of 8.

One may read the stoichiometry N as the number of molecules, sites or subunits per partner or assembly.
